The chains are these.
T1: human integrin avb8 (human)
T1 chain 1: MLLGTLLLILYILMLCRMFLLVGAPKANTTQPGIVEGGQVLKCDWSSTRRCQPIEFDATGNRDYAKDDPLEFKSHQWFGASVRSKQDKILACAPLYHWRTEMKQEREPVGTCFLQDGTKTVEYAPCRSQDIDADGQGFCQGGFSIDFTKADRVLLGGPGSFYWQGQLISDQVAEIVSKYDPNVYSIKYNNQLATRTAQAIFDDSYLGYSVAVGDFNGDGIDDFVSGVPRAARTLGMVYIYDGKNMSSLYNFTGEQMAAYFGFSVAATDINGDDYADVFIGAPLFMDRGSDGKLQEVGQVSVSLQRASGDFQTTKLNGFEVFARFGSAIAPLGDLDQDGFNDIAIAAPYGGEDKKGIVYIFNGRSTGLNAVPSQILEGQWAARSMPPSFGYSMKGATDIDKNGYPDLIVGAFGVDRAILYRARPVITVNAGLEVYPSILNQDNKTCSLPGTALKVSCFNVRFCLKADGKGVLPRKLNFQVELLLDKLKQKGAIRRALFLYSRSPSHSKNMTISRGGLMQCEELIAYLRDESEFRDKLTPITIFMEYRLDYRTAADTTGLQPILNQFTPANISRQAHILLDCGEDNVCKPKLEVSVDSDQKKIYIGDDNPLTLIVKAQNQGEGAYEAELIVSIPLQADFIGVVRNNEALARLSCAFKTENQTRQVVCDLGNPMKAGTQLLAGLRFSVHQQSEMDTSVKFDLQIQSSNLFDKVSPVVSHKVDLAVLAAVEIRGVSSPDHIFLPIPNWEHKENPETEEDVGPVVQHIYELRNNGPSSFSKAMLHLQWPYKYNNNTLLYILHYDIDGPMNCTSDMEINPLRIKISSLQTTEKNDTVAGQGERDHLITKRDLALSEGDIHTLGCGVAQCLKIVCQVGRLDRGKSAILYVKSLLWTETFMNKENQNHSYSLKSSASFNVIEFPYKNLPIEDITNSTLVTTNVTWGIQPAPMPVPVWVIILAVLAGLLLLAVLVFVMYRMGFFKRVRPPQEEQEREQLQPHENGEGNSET
T1 chain 2: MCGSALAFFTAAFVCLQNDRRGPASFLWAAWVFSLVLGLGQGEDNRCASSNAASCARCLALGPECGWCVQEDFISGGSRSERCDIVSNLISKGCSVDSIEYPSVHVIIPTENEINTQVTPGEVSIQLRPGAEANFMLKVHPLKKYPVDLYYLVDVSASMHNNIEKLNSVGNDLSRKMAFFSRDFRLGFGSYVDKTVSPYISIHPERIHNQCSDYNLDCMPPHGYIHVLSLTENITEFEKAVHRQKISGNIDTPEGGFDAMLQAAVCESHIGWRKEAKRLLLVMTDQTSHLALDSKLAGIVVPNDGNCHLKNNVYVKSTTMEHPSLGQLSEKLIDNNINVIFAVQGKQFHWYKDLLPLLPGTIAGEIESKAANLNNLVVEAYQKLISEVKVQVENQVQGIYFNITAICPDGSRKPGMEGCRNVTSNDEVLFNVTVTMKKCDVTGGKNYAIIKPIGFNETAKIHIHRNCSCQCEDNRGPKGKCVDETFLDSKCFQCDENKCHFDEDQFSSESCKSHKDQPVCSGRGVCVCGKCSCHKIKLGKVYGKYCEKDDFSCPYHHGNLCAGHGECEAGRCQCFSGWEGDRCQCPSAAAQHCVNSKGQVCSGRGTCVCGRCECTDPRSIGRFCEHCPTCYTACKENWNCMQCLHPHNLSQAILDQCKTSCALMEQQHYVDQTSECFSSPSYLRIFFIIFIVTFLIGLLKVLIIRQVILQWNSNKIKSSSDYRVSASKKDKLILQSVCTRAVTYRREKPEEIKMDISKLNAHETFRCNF

B1: ADWA11 VH05/VK01 (VH05-2_VK01) Fab (antibody, V domains shown)
VH: EVQLVESGGGLVQPGGSLRLSCAASGFNIKDYYMNWVRQAPGKGLEWVGWIDPDNGNTIYDPKFQGRFTISADTSKNSAYLQMNSLRAEDTAVYYCARRLLMDYWGQGTLVTVSS
VL: DIQMTQSPSSLSASVGDRVTITCRSTKSLLHFNGNTYLFWYQQKPGKAPKRLIYYMSNLASGVPSRFSGSGSGTDFTLTISSLQPEDFATYYCMQSLEYPFTFGQGTKVEIK
B2: ADWA11 2.4 Fab (antibody, V domains shown)
VH: EVQLVESGGGLVQPGGSLRLSCAASGFNIKDYYMNWVRQAPGKGLEWVGWIDPDQGNTIYEPKFQGRFTISADTSKNSAYLQMNSLRAEDTAVYYCARRLLMDYWGQGTLVTVSS
VL: DIQMTQSPSSLSASVGDRVTITCRSTKSLSHFNGNTYLFWYQQKPGKAPKRLIYYMSSLASGVPSRFSGSGSGTDFTLTISSLQPEDFATYYCQQSLEYPFTFGGGTKVEIK
B3: Mouse hybridoma ADWA-11 Fab (antibody, V domains shown)
VH: EVQLQQSGAELVRPGAFVKLSCKASGFNIKDYYMNWVLQRPEQGLEWIGWIDPDNGNTIYDPKFQGKASITADTSSNTAYLQLSSLTSEDTAVYYCARRLLMDYWGQGTSVTVSS
VL: DIVMTQAAPSVPVTPGESVSISCRSTKSLLHFNGNTYLFWFLQRPGQSPQRLIYYMSNLASGVPDRFSGRGSGTDFTLRISRVEAEDVGVYYCMQSLEYPFTFGTGTKLEIK

Values joined by “and” are separate entries in the source; they are usually repeats but may differ in a detail not shown here. Equal values may be shown once.

The target in this assay is T1, human integrin avb8. The assay is described as follows: SPR 25C.
Turning to B1, the Kd was 0.209 nM and 0.118 nM.

The molecule B2 gave a dissociation constant (Kd) of less than 0.2 nM.

B3 came in with an equilibrium dissociation constant (Kd) of 0.536 nM.

By Kd is commonly meant the concentration at which binding is half-saturated. Higher therefore signals a looser complex.

The values above are taken from patent US20220289850 (published 2022).
